Experimental findings from patent US20240409645A1 (DUALYX, published 2024) are described below.

Test [1] concerns the target T1, human IL-2Rα (human, UniProt P01589 22-240, limits assumed).
T1 construct: recombinant protein; also called hu IL-2R; human IL-2Ra
T1 sequence: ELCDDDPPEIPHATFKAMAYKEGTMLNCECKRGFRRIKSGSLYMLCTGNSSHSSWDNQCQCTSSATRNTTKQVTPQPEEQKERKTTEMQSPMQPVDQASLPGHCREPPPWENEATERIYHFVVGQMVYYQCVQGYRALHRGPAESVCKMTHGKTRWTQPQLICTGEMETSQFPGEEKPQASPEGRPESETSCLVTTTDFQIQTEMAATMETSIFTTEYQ
As to the kind of experiment: ELISA, P.E. on coated antigen. On the procedure:
In a binding ELISA, human or mouse IL-2Rα, IL-2Rβ and IL-2Rγ proteins were coated directly on maxisorp microtiter plates overnight at 4° C. Free binding sites were blocked using 4% Marvel in PBS for 1 hour. Next, 1:5 dilution of P.E. in 1% Marvel/PBS were added to wells and incubated for 1 hour. […] Binding specificity was determined based on O.D. at 450 nm values compared to negative controls.
A general note: In an ELISA, binding on a coated surface is turned into a signal by an enzyme label.

Test [2] addresses T1, human IL-2Rα. As to the kind of experiment: SPR, P.E. on immobilised antigen. As for the experimental part: SPR was performed to determine dissociation rates using Biacore 3000 instrument (GE Healthcare). Briefly, human and mouse IL-2R proteins were immobilized on carboxylmethyl dextran sensor chip (CM5) at approximately 2500 RUs using amine coupling in acetate buffer (GE Healthcare). The VHH-containing P.E. were loaded with a flow rate of 30 uL/min and the off-rates were measured over a 120s period.
(In general: Surface plasmon resonance follows binding to a sensor surface in real time, without labels.)

As a reminder, the koff is the first-order rate constant of dissociation.

Numbering of substitutions follows the chain as printed.

B1: 10-MP05F03 (VHH)
VHH: QVQLVESGGGLVQAGGSLRLSCAASGIPFDNYAMGWFRQAPGKEREFVAARDLEGIITRYGDSVKGRFTISRGNAKNTVFLQMNSLKPEDTAVYYCAARDGGVVAGSRSSAQYNYWGQGTQVTVSS
notes: periplasmic extract; also called FJ1427_P035MP05F03
In the case of B1, in the test with human IL-2Rα [1], the “OD (PE binding ELISA)” value was determined as 2.46 OD450 nm. The molecule also registered a koff in the test with human IL-2Rα [2] of 0.000639 s⁻¹.

B2: FJ1427_P035MP01F02 (VHH)
VHH: QVQLQESGGGLVQAGGSLRLSCAASGRTFRTHNMGWFRRAPGKEREFVAAISWNIDNKLYADSVKGRSTISRDNGGNMVFLQMNSLKPEDTAVYYCAADKIPLSSDVAATATEYDDWGQGTQVTVSS
notes: periplasmic extract; also called clone nr; 14
As for B2, the “OD (PE binding ELISA)” value in the test with human IL-2Rα [1] was 2.5 OD450 nm. In the test with human IL-2Rα [2], this molecule registered a koff of 0.00391 s⁻¹.

B3: FJ1427_P035MP01E10 (VHH)
VHH: QVQLVESGGGLVQAGDSLRLSCAASGRSFRNYILAWYRQAPGKEREFLAAISWLDGTLYADSVEDRFTISRDNPKNTVHLQMDSLKPEDTAVYYCAADRGPVRPVLAPDVDYWGQGTQVTVSS
notes: periplasmic extract; also called clone nr; 77
In the case of B3, the “OD (PE binding ELISA)” value with human IL-2Rα [1] worked out at 2.78 OD450 nm. For the same molecule, the koff with human IL-2Rα [2] was determined as 0.00119 s⁻¹.

B4: FJ1427_P035MP01A01 (VHH)
VHH: B3 VHH with Q1E, S84N, T120S
notes: periplasmic extract; also called clone nr
For B4, in the test with human IL-2Rα [1], the “OD (PE binding ELISA)” value was found to be 2.85 OD450 nm. In the test with human IL-2Rα [2], this molecule gave a koff of 0.00112 s⁻¹.

B5: FJ1427_P035MP01E02 (VHH)
VHH: B3 VHH with S84N
notes: periplasmic extract; also called clone nr; 13
As to B5, the “OD (PE binding ELISA)” value in the test with human IL-2Rα [1] turned out to be 2.86 OD450 nm. Moreover, the koff in the test with human IL-2Rα [2] turned out to be 0.00128 s⁻¹.

B6: FJ1427_P035MP01G07 (VHH)
VHH: B3 VHH with A14T, D65G
notes: periplasmic extract; also called clone nr; 55
As for B6, the “OD (PE binding ELISA)” value with human IL-2Rα [1] came out at 2.75 OD450 nm. In the test with human IL-2Rα [2], this molecule came in with a koff of 0.0015 s⁻¹.

B7: FJ1427_P035MP01F11 (VHH)
VHH: B3 VHH with V5Q
notes: periplasmic extract; also called clone nr; 86
As to B7, the “OD (PE binding ELISA)” value with human IL-2Rα [1] is 2.74 OD450 nm. For the same molecule, the off-rate constant (koff) in the test with human IL-2Rα [2] came to 0.00118 s⁻¹.

B8: FJ1427_P035MP01E07 (VHH)
VHH: B3 VHH with V5Q, D55E
notes: periplasmic extract; also called clone nr; 53
As to B8, the “OD (PE binding ELISA)” value with human IL-2Rα [1] is 2.73 OD450 nm. The off-rate (koff) with human IL-2Rα [2] worked out at 0.00159 s⁻¹.

B9: FJ1427_P035MP01B12 (VHH)
VHH: B3 VHH with V5Q, L58F, D61N, D65G, S84G, S122A
notes: periplasmic extract; also called clone nr; 90
B9: the “OD (PE binding ELISA)” value with human IL-2Rα [1] was determined as 3.05 OD450 nm. Besides, the koff with human IL-2Rα [2] turned out to be 0.00144 s⁻¹.

B10: FJ1427_P035MP01E04 (VHH)
VHH: B3 VHH with A24V, L58F, D61N, D65G, S84G, S122A
notes: periplasmic extract; also called clone nr; 29
For B10, in the test with human IL-2Rα [1], the “OD (PE binding ELISA)” value came to 2.61 OD450 nm. Also, the off-rate constant (koff) in the test with human IL-2Rα [2] was found to be 0.00235 s⁻¹.

B11: FJ1427_P035MP01D11 (VHH)
VHH: B3 VHH with V2L, L34M
notes: periplasmic extract; also called clone nr; 84
On to B11, for which the “OD (PE binding ELISA)” value with human IL-2Rα [1] was found to be 3.21 OD450 nm. The off-rate constant (koff) in the test with human IL-2Rα [2] was determined as 0.0027 s⁻¹.

B12: 6-MP01G05 (VHH)
VHH: QVQLQESGGGLVQAGGSLRLSCAASGRTFSSYAMGWFRQAPGKEREFVAVISWNVDNTEYTDSVKGRFTISRDNDKNMVYLQMNSLKPEDTAVYYCAADSIPLSSDMSPTATEYGYWGQGTQVTVSS
notes: periplasmic extract; also called FJ1427_P035MP01G05
As for B12, the “OD (PE binding ELISA)” value in the test with human IL-2Rα [1] is 1.79 OD450 nm. In the test with human IL-2Rα [2], this molecule had a koff of 0.0206 s⁻¹.

B13: FJ1427_P035MP01A11 (VHH)
VHH: QVQLVESGGGLVQPGGSLRLSCAASGRTFETHNMGWFRRAPGKEREFVAVISWNVDSTEYTDSVKGRFTISRDNDKNMVYLQMNSLKPEDTGVYYCAADNIPLSSDMSPTAAEYGYWGQGTQVTVSS
notes: periplasmic extract; also called clone nr; 81
For the molecule B13, the “OD (PE binding ELISA)” value with human IL-2Rα [1] worked out at 2.81 OD450 nm. The koff with human IL-2Rα [2] is 0.000778 s⁻¹.

B14: FJ1427_P035MP01F08 (VHH)
VHH: EVQLVESGGGWVQPGDSLRLSCAASGRSFRNYVMGWFRQVPGKEREFLSVITSLGGTLDADSVADRFTISRDNSKNTVYLQMDSLKPEDTAVYYCAADRGPARYISASDVDYWGQGTQVTVSS
notes: periplasmic extract; also called clone nr; 62
In the case of B14, in the test with human IL-2Rα [1], the “OD (PE binding ELISA)” value worked out at 2.71 OD450 nm. For the same molecule, the koff with human IL-2Rα [2] stood at 0.00162 s⁻¹.

B15: FJ1427_P035MP01B01 (VHH)
VHH: B14 VHH with P14A, S28T, L58V, D59Y, D65N, S74P, N76D, V121A
notes: as for B4
On to B15, for which the “OD (PE binding ELISA)” value in the test with human IL-2Rα [1] is 2.78 OD450 nm. Moreover, the koff with human IL-2Rα [2] was 0.00178 s⁻¹.

B16: FJ1427_P035MP01D04 (VHH)
VHH: B14 VHH with E1Q, S53W
notes: periplasmic extract; also called clone nr; 28
Consider B16, for which the “OD (PE binding ELISA)” value with human IL-2Rα [1] was 2.76 OD450 nm. Besides, the koff with human IL-2Rα [2] is 0.00295 s⁻¹.

B17: FJ1427_P035MP01F06 (VHH)
VHH: QLQLVESGGGLVQAGGSLRLSCAASGGAFSRYAVGWFRMAPGKGREFVSAIDLSGTNTHVLDSVKGRFTISRDNDKNTAYLQMDKLQPEDTAVYWCAATSSSYSDYEANYNIWGQGTQVTVSS
notes: periplasmic extract; also called clone nr; 46
On to B17, for which the “OD (PE binding ELISA)” value with human IL-2Rα [1] was determined as 2.71 OD450 nm. Further, the koff with human IL-2Rα [2] came out at 0.000526 s⁻¹.

B18: FJ1427_P035MP01G10 (VHH)
VHH: B17 VHH with Q1E, L2V
notes: periplasmic extract; also called clone nr; 79
With B18, the “OD (PE binding ELISA)” value with human IL-2Rα [1] was 2.75 OD450 nm. Also, the koff with human IL-2Rα [2] was found to be 0.000443 s⁻¹.

B19: 3-MP01E03 (VHH)
VHH: QVQLVESGGGLVQAGGSLRLSCTASGRTLSSYSMAWFRQAADKGREFVTAISSSGVVTHVLDSVKGRFTISRDNAKNTVYLQMNSLQPEDTALYFCAGTASSYSTYEANYNYWGQGTLVTVSS
notes: periplasmic extract; also called FJ1427_P035MP01E03
Regarding B19, the “OD (PE binding ELISA)” value with human IL-2Rα [1] was 2.54 OD450 nm. This molecule had a koff with human IL-2Rα [2] of 0.000799 s⁻¹.

B20: FJ1427_P035MP01H07 (VHH)
VHH: B19 VHH with Q1E, T23A, S31G, S33A, A40P, A41P, V56I, G98A, T105D
notes: periplasmic extract; also called clone nr; 56
With B20, the “OD (PE binding ELISA)” value with human IL-2Rα [1] stood at 2.14 OD450 nm. Also, in the test with human IL-2Rα [2], the koff was 0.00112 s⁻¹.

B21: FJ1427_P035MP05D06 (VHH)
VHH: QVQLVESGGGLVQAGDSLRLSCAASGFNFGWHAMGWFRQAPGKEREFVATITWTGRDTYYADSVRGRFTISKDNAKDTLFLQMNSLRPDDTGVYYCAKARERATWAYSEDDCDYWGQGTQVTVSS
notes: as for B4
In the case of B21, the “OD (PE binding ELISA)” value with human IL-2Rα [1] came out at 2.51 OD450 nm. In the test with human IL-2Rα [2], this molecule gave a koff of 0.000677 s⁻¹.

B22: 13-MP05E12 (VHH)
VHH: B21 VHH with V5Q
notes: periplasmic extract; The row prints V ID 13-MP05E12 beside Clone ID ...MP05H07; clone nr; also called FJ1427_P035MP05H07
With B22, in the test with human IL-2Rα [1], the “OD (PE binding ELISA)” value stood at 2.34 OD450 nm. The same molecule registered a koff in the test with human IL-2Rα [2] of 0.000742 s⁻¹.

B23: FJ1427_P035MP05F06 (VHH)
VHH: B21 VHH with Q1E
notes: periplasmic extract; also called clone nr; 430
B23: the “OD (PE binding ELISA)” value in the test with human IL-2Rα [1] stood at 2.51 OD450 nm. Moreover, the koff with human IL-2Rα [2] was 0.00067 s⁻¹.

B24: FJ1427_P035MP05H05 (VHH)
VHH: B21 VHH with D77N, N84S
notes: as for B4
Turning to B24, the “OD (PE binding ELISA)” value in the test with human IL-2Rα [1] stood at 2.51 OD450 nm. Also, the koff with human IL-2Rα [2] amounted to 0.000591 s⁻¹.

B25: 07-MP01G08 (VHH)
VHH: EVQLVESGGGLVQAGGSLRLSCAASGRAFSMYNMGWFRQAPGKEREFVAATGWSGANTPYADSVKGRFTISRDNTQNTVYLQMNSLKPEDTATYYCAADSIRLRSDVTRIPLEYDYWGQGTQVTVSS
notes: periplasmic extract; also called FJ1427_P035MP01G08
Turning to B25, the “OD (PE binding ELISA)” value with human IL-2Rα [1] is 2.57 OD450 nm. Besides, the koff with human IL-2Rα [2] is 0.00184 s⁻¹.

B26: 5-MP01F05 (VHH)
VHH: EVQLVESGGGLVQAGGSLRLSCAASIRAFTTWSMAWFRQAPGKEREYVARINVSGSVTYYADFVKGRFTISRDNAKKTMYLEMNNLKPEDTALYYCAADRTGVGTNDYNYWGQGTQVTVSS
notes: periplasmic extract; also called FJ1427_P035MP01F05
On to B26, for which the “OD (PE binding ELISA)” value with human IL-2Rα [1] came out at 2.62 OD450 nm. Moreover, in the test with human IL-2Rα [2], the koff is 0.00042 s⁻¹.
